1 molecule from article PMC12603107 (2025) can be followed below.

This test has as its target T1, CI-M6P/IGF2R domains 11-13 (Homo sapiens, UniProt P11717).
T1 chain: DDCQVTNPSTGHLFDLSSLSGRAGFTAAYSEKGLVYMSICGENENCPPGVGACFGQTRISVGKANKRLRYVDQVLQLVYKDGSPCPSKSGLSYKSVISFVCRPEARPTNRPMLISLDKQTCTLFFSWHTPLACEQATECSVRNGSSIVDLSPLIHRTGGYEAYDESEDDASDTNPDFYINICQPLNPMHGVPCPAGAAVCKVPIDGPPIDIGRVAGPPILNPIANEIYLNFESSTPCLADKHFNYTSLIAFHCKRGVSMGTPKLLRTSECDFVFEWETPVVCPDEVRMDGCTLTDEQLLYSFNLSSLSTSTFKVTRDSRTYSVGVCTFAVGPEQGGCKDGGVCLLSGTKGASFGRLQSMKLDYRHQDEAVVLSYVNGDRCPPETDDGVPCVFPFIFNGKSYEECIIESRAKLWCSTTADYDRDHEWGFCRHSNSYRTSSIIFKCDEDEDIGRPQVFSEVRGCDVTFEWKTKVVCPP
As to the kind of experiment: competitive ELISA (biotinylated IGF2). For orientation: ELISA stands for enzyme-linked immunosorbent assay.

B1: IGF2 peptide (des1-6) 7-67 (protein)
chain: KSMLVLLTFLAFASCCIAAYRPSETLCGGELVDTLQFVCGDRGFYFSRPASRVSRRSRGIV
As a reminder, the IC50 is the concentration that gives 50% inhibition. A higher IC50 goes with weaker potency in that assay. B1 had an IC50 of around 5 nM.
